According to patent US20200270347A1 (Hoffmann-La Roche, published 2020):

Tests used:
[1] = molecular target: T1, human CD3 expressed on Jurkat NFAT reporter cells (human, UniProt P07766 23-207); assay: flow cytometry on Jurkat NFAT cells, PE-labelled anti-human Fc secondary antibody
T1 construct: CD3 complex on cells; also called CD3 on Jurkat cells; CD3 expressing cells

[2] = molecular target: T2, heterodimer of human CD3 delta and CD3 epsilon ectodomains fused to a human Fc domain with knob-into-hole … (human); assay: SPR, relative active concentration after stress
T2 construct: Each entry is the whole fusion chain (ectodomain, stalk, Fc, Avi-tag); also called recombinant CD3; recombinant human CD3

[3] = molecular target: T3, recombinant TYRP1 (Sino Biologicals) (human, UniProt P17643 25-477, limits assumed); assay: SPR, relative active concentration as for CD3, with recombinant TYRP1 (Sino Biologicals) as antigen; sample: 14d pH 6.0, 40°C
T3 construct: Bought protein; also called human TYRP1

[4] = molecular target: T3, recombinant TYRP1 (Sino Biologicals); assay: SPR, relative active concentration as for CD3, with recombinant TYRP1 (Sino Biologicals) as antigen; sample: 14d pH 7.4, 37°C
[5] = molecular target: T3, recombinant TYRP1 (Sino Biologicals); assay: SPR, relative active concentration as for CD3, with recombinant TYRP1 (Sino Biologicals) as antigen; sample: unstressed
[6] = molecular target: Mouse TYRP1 ECD-Fc(knob)-Avi / Fc(hole) (mouse, UniProt P01857 104-328 = IgG part); assay: SPR, TYRP1 ECD-Fc captured with anti-PGLALA antibody, Fab as analyte, 1:1 Langmuir; mouse TYRP1
[7] = molecular target: T4, Human TYRP1 ECD-Fc(knob)-Avi / Fc(hole) (human, UniProt P01857 104-328 = IgG part); assay: SPR, TYRP1 ECD-Fc captured with anti-PGLALA antibody, Fab as analyte, 1:1 Langmuir; human TYRP1
T4 construct: Fc with knob-into-hole and PG LALA modifications, C-terminal Avi-tag; also called monomeric fusion of the human TYRP1 extracellular domain to a human Fc-domain

[8] = molecular target: Cynomolgus TYRP1 ECD-Fc(knob)-Avi / Fc(hole) (cynomolgus, UniProt P01857 104-328 = IgG part); assay: SPR, TYRP1 ECD-Fc captured with anti-PGLALA antibody, Fab as analyte, 1:1 Langmuir; cynomolgus TYRP1
[9] = molecular target: T5, EGFRvIII-ECD avi his (human); assay: SPR, PGLALA IgG captured with anti-PGLALA antibody, EGFRvIII-ECD avi his as analyte, 1:1 Langmuir, 25° C.
T5 construct: Extracellular domain of human EGFRvIII fused to an Avi-tag and a His-tag at the C-terminus; the entry is the whole construct; also called recombinant EGFRvIII; EGFRvIII antigen

[10] = molecular target: T6, wild-type EGFR on MKN-45 cells (human, UniProt P00533 25-1210); assay: flow cytometry on MKN-45 cells (wild-type EGFR), IgG PGLALA
T6 construct: MKN-45 is the wild-type EGFR line used to exclude crossreactivity; also called EGFRwt

[11] = molecular target: EGFRwt ECD antigen (His-tagged, captured with anti-His) (human, UniProt P00533 25-645); assay: SPR, ECD antigen captured with anti-His, single injection of antibody at 500 nM
[12] = molecular target: T5, EGFRvIII-ECD avi his; assay: as above
[13] = molecular target: T7, EGFRvIII expressed on the cell surface (CHO-EGFRvIII, DK-MG, U87MG-EGFRvIII cells) (human, UniProt P00533 298-1210); assay: flow cytometry on U87MG-EGFRvIII cells, IgG PGLALA
T7 construct: The cell line of each result is named under assay; Species is stated for the U87 transfectant (human EGFRvIII protein) and the entry; also called EGFRvIII positive cells

[14] = molecular target: TYRP1 on the melanoma cell line M150543 (human, UniProt P17643 25-537); assay: cell-based or functional assay
[15] = molecular target: T8, heterodimer of cynomolgus CD3 delta and CD3 epsilon ectodomains fused to a human Fc domain with … (cynomolgus); assay: SPR, TCB captured with anti-PGLALA antibody, CD3 antigen as analyte, 1:1 Langmuir
T8 construct: Each entry is the whole fusion chain; also called Cynomolgus CD3 epsilon stalk-Fc(knob)-Avi / Cynomolgus CD3 delta stalk-Fc(hole)-Avi

[16] = molecular target: T2, heterodimer of human CD3 delta and CD3 …; assay: as above

T1 sequence (P07766 23-207 limits assumed): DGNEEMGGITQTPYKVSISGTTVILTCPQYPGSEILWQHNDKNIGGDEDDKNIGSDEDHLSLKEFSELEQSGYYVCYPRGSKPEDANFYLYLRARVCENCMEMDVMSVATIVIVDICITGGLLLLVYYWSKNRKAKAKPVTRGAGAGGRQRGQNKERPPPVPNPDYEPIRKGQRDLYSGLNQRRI

B1: CD3opt human IgG1 PGLALA (antibody, V domains shown)
VH: EVQLLESGGGLVQPGGSLRLSCAASGFQFSSYAMNWVRQAPGKGLEWVSRIRSKYNNYATYYADSVKGRFTISRDDSKNTLYLQMNSLRAEDTAVYYCVRHTTFPSSYVSYYGYWGQGTLVTVSS
VL: QAVVTQEPSLTVSPGGTVTLTCGSSTGAVTTSNYANWVQEKPGQAFRGLIGGTNKRAPGTPARFSGSLLGGKAALTLSGAQPEDEAEYYCALWYSNLWVFGGGTKLTVLR
notes: Human IgG1 format with P329G L234A L235A (PGLALA); also called CD3opt IgG PGLALA
EC50 (read off the curve) [1]: ~0.5 nM | binding activity to CD3 after 2 weeks at pH 7.4, 37° C., relative to 2 weeks at pH 6, -80° C. [2]: > 90%

B2: CD3orig human IgG1 PGLALA (antibody, V domains shown)
VH: not shown
VL: QAVVTQEPSLTVSPGGTVTLTCGSSTGAVTTSNYANWVQEKPGQAFRGLIGGTNKRAPGTPARFSGSLLGGKAALTLSGAQPEDEAEYYCALWYSNLWVFGGGTKLTVLR
notes: Human IgG1 format with P329G L234A L235A (PGLALA) in the Fc by the text; also called CD3orig IgG PGLALA
EC50 (read off the curve) [1]: ~0.8 nM

B3: TYRP1 IgG (antibody, V domains shown)
VH: QVQLVQSGAEVKKPGASVKVSCKASGFNIKDYFLHWVRQAPGQGLEWMGWINPDNGNTVYAQKFQGRVTMTADTSTSTVYMELSSLRSEDTAVYYCTRRDYTYEKAALDYWGQGTLVTVSS
VL: DIQMTQSPSSLSASVGDRVTITCRASGNIYNYLAWYQQKPGKVPKLLIYDAKTLADGVPSRFSGSGSGTDFTLTISSLQPEDVATYYCQHFWSLPFTFGQGTKLEIK
notes: IgG format; constant regions not specified
Tyrp1 Binding Activity (%) [3]: 97% | Tyrp1 Binding Activity (%) [4]: 101% | Tyrp1 Binding Activity (%) [5]: 100%

B4: TYRP1 Fab fragment (humanized TA99 TYRP1 binder) (Fab, V domains shown)
VH: QVQLVQSGAEVKKPGASVKVSCKASGFNIKDYFLHWVRQAPGQGLEWMGWINPDNGNTVYAQKFQGRVTMTADTSTSTVYMELSSLRSEDTAVYYCTRRDYTYEKAALDYWGQGTLVTVSS
VL: DIQMTQSPSSLSASVGDRVTITCRASGNIYNYLAWYQQKPGKVPKLLIYDAKTLADGVPSRFSGSGSGTDFTLTISSLQPEDVATYYCQHFWSLPFTFGQGTKLEIK
notes: Fab prepared by plasmin digestion of the corresponding antibody; also called TYRP1 Fab fragments
Kd [6]: 0.53 nM | Kd [7]: 0.13 nM | Kd [8]: 0.18 nM

B5: EGFRvIII antibody P063.056 IgG1 PGLALA (antibody, V domains shown)
VH: EVQLVQSGAEVKKPGESLKISCKGSGYSFDSYWIAWVRQMPGKGLEWMGVIHPYDSDTRYSPSFQGQVTISADKSISTAYLQWSSLKASDTAMYYCARVSRSSYAFDYWGQGTLVTVSS
VL: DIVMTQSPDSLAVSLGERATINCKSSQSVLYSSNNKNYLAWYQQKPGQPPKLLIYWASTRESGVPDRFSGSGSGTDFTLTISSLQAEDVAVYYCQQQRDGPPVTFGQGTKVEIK
notes: Anti-EGFRvIII PGLALA IgG (human IgG1)
Kd [9]: 10 nM | binding result [10]: no binding (tested: about 140 nM) | response units [11]: < 5 RU | response units [12]: > 50 RU

B6: EGFRvIII antibody P065.036 IgG1 PGLALA (antibody, V domains shown)
VH: EVQLVQSGAEVKKPGESLKISCKGSGYSFDSYWIAWVRQMPGKGLEWMGVIHPYDSDTRYSPSFQGQVTISADKSISTAYLQWSSLKASDTAMYYCARVSRSSYALDYWGQGTLVTVSS
VL: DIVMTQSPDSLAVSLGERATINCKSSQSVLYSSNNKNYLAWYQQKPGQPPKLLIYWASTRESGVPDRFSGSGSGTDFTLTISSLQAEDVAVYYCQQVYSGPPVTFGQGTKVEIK
notes: as for B5
Kd [9]: 10 nM | response units [11]: > 5 RU | response units [12]: > 50 RU

B7: EGFRvIII antibody P064.078 IgG1 PGLALA (antibody, V domains shown)
VH: EVQLVQSGAEVKKPGESLKISCKGSGYSFDSYWIAWVRQMPGKGLEWMGVIHPYDSDTRYSPSFQGQVTISADKSISTAYLQWSSLKASDTAMYYCARVSRLSYALDYWGQGTLVTVSS
VL: not shown
notes: as for B5
EC50 (read off the curve) [13]: ~3 nM | Kd [9]: 15 nM | response units [11]: > 5 RU | response units [12]: > 50 RU

B8: TYRP1 TCB CD3opt (bispecific antibody, human IgG1, kappa, L234A L235A)
heavy 1: not shown
heavy 2: QVQLVQSGAEVKKPGASVKVSCKASGFNIKDYFLHWVRQAPGQGLEWMGWINPDNGNTVYAQKFQGRVTMTADTSTSTVYMELSSLRSEDTAVYYCTRRDYTYEKAALDYWGQGTLVTVSSASTKGPSVFPLAPSSKSTSGGTAALGCLVEDYFPEPVTVSWNSGALTSGVHTFPAVLQSSGLYSLSSVVTVPSSSLGTQTYICNVNHKPSNTKVDEKVEPKSCDKTHTCPPCPAPEAAGGPSVFLFPPKPKDTLMISRTPEVTCVVVDVSHEDPEVKFNWYVDGVEVHNAKTKPREEQYNSTYRVVSVLTVLHQDWLNGKEYKCKVSNKALGAPIEKTISKAKGQPREPQVCTLPPSRDELTKNQVSLSCAVKGFYPSDIAVEWESNGQPENNYKTTPPVLDSDGSFFLVSKLTVDKSRWQQGNVFSCSVMHEALHNHYTQKSLSLSP
light 1: DIQMTQSPSSLSASVGDRVTITCRASGNIYNYLAWYQQKPGKVPKLLIYDAKTLADGVPSRFSGSGSGTDFTLTISSLQPEDVATYYCQHFWSLPFTFGQGTKLEIKRTVAAPSVFIFPPSDRKLKSGTASVVCLLNNFYPREAKVQWKVDNALQSGNSQESVTEQDSKDSTYSLSSTLTLSKADYEKHKVYACEVTHQGLSSPVTKSFNRGEC
light 2: EVQLLESGGGLVQPGGSLRLSCAASGFQFSSYAMNWVRQAPGKGLEWVSRIRSKYNNYATYYADSVKGRFTISRDDSKNTLYLQMNSLRAEDTAVYYCVRHTTFPSSYVSYYGYWGQGTLVTVSSASVAAPSVFIFPPSDEQLKSGTASVVCLLNNFYPREAKVQWKVDNALQSGNSQESVTEQDSKDSTYSLSSTLTLSKADYEKHKVYACEVTHQGLSSPVTKSFNRGEC
notes: two TYRP1 Fabs, one CD3opt crossover Fab
Tyrp1 Binding Activity (%) [3]: 101% | Tyrp1 Binding Activity (%) [4]: 101% | EC50 of tumor cell killing at 48 h (LDH release), PBMC donor 1 [14]: 0.31 nM | EC50 of tumor cell killing at 48 h (LDH release), PBMC donor 2 [14]: 0.03 nM | EC50 of tumor cell killing at 48 h (LDH release), PBMC donor 3 [14]: 0.08 nM | Tyrp1 Binding Activity (%) [5]: 100% | binding activity to CD3 after 2 weeks at pH 7.4, 37° C., relative to 2 weeks at pH 6, -80° C. [2]: > 90% | Kd [15]: 20 nM | Kd [16]: 50 nM

B9: TYRP1 TCB CD3orig (bispecific antibody, human IgG1, kappa, L234A L235A)
heavy 1: not shown
heavy 2: QVQLVQSGAEVKKPGASVKVSCKASGFNIKDYFLHWVRQAPGQGLEWMGWINPDNGNTVYAQKFQGRVTMTADTSTSTVYMELSSLRSEDTAVYYCTRRDYTYEKAALDYWGQGTLVTVSSASTKGPSVFPLAPSSKSTSGGTAALGCLVEDYFPEPVTVSWNSGALTSGVHTFPAVLQSSGLYSLSSVVTVPSSSLGTQTYICNVNHKPSNTKVDEKVEPKSCDKTHTCPPCPAPEAAGGPSVFLFPPKPKDTLMISRTPEVTCVVVDVSHEDPEVKFNWYVDGVEVHNAKTKPREEQYNSTYRVVSVLTVLHQDWLNGKEYKCKVSNKALGAPIEKTISKAKGQPREPQVCTLPPSRDELTKNQVSLSCAVKGFYPSDIAVEWESNGQPENNYKTTPPVLDSDGSFFLVSKLTVDKSRWQQGNVFSCSVMHEALHNHYTQKSLSLSP
light 1: DIQMTQSPSSLSASVGDRVTITCRASGNIYNYLAWYQQKPGKVPKLLIYDAKTLADGVPSRFSGSGSGTDFTLTISSLQPEDVATYYCQHFWSLPFTFGQGTKLEIKRTVAAPSVFIFPPSDRKLKSGTASVVCLLNNFYPREAKVQWKVDNALQSGNSQESVTEQDSKDSTYSLSSTLTLSKADYEKHKVYACEVTHQGLSSPVTKSFNRGEC
light 2: EVQLLESGGGLVQPGGSLRLSCAASGFTFSTYAMNWVRQAPGKGLEWVSRIRSKYNNYATYYADSVKGRFTISRDDSKNTLYLQMNSLRAEDTAVYYCVRHGNFGNSYVSWFAYWGQGTLVTVSSASVAAPSVFIFPPSDEQLKSGTASVVCLLNNFYPREAKVQWKVDNALQSGNSQESVTEQDSKDSTYSLSSTLTLSKADYEKHKVYACEVTHQGLSSPVTKSFNRGEC
notes: 2+1 IgG CrossFab, inverted, with charge modifications
Tyrp1 Binding Activity (%) [3]: 98% | Tyrp1 Binding Activity (%) [4]: 103% | EC50 of tumor cell killing at 48 h (LDH release), PBMC donor 1 [14]: 0.44 nM | EC50 of tumor cell killing at 48 h (LDH release), PBMC donor 2 [14]: 0.05 nM | EC50 of tumor cell killing at 48 h (LDH release), PBMC donor 3 [14]: 0.14 nM | Tyrp1 Binding Activity (%) [5]: 100% | Kd [16]: 50 nM
